US20100266598A1

Key:
[1] = target: Rhesus CCR5 (Rhesus Macaque); experiment: cell-based or functional assay
human CCR5 (human) = human CCR5 (human) (UniProt P51681); experiment: cell-based or functional assay

Row | Substance | % Inhibition, Rhesus PBMC (#810) x 12E1/SIV239, inhibitor at 20 µg/ml [1] [%] | No. of Syncytia, Rhesus PBMC (#810) x 12E1/SIV239, inhibitor at 20 µg/ml [1] [syncytia] | % Inhibition, PM1 x 12E1/BaL, inhibitor at 20 µg/ml (human CCR5 (human)) [%] | CCR5-tropic virus neutralization (percent inhibition of p24) at 50 µg/ml (human CCR5 (human)) [%] | IC50 of PBMC infection by BaL, JR-CSF and 92US657 (human CCR5 (human)) [µg/mL] | No. of Syncytia, PM1 x 12E1/BaL, inhibitor at 20 µg/ml (human CCR5 (human)) [syncytia] | % Inhibition, Rhesus PBMC (#810) x 12E1/SIV239, inhibitor at 25 µg/ml [1] [%] | No. of Syncytia, Rhesus PBMC (#810) x 12E1/SIV239, inhibitor at 25 µg/ml [1] [syncytia] | % Inhibition, PM1 x 12E1/BaL, inhibitor at 25 µg/ml (human CCR5 (human)) [%] | No. of Syncytia, PM1 x 12E1/BaL, inhibitor at 25 µg/ml (human CCR5 (human)) [syncytia]
1 | monoclonal antibody (mAb) 2D7 | 4 | 258 | 99 | 82 to 93 | 2 to 4 | 5 |  |  |  | 
2 | pre-immune rabbit IgG (antibody) |  |  |  |  |  |  | 0 | 285 | 0 | 487
